Experimental data from publication PMC12738692, “Identification, characterization, and structure-activity relationship of the ASIC3-selective peptide WRPRFa” (Communications Chemistry, 2025).
Residue numbers refer to the chain shown, from its start. Values joined by “and” are separate entries in the source; they are usually repeats but may differ in a detail not shown here. Identical values can stand only once. Like-named read-outs stand apart in the source and are kept apart here. Where a SMILES comes first, the peptide text is derived from it. Where no end group is shown, it is not given here. [ ]: non-standard residue; d: D form. The star is where a group is joined. Arg(Me2a) = CN(C)C(=N)NCCC[C@H](N)C(=O)O; Cha = N[C@@H](CC1CCCCC1)C(=O)O; pNA = O=[N+]([O-])c1ccc(N*)cc1

Columns and labels:
[1] = target: T1, human ASIC3 (Homo sapiens, UniProt Q9UHC3); assay: cell-based
T1 construct: CHO cells stably expressing human ASIC3 (NM_004769.1)
T1 sequence (Q9UHC3 1-531): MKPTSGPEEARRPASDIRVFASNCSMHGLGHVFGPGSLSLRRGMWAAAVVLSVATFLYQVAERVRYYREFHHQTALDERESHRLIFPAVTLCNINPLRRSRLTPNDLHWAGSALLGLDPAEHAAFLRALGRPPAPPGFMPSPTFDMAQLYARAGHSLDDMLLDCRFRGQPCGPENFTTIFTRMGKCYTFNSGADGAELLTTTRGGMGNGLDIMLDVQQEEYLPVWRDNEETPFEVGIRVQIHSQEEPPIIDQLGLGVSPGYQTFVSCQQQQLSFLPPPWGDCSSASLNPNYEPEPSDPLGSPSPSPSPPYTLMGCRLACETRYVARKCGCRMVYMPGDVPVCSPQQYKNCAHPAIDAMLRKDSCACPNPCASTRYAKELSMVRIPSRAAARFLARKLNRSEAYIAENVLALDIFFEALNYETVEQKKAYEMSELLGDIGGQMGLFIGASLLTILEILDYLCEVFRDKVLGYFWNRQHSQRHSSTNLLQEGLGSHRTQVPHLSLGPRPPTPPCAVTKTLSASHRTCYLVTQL

[2] = target: T1, human ASIC3; assay: QPatch II peptide concentration-response (I3s/Ipk); assay type: cell-based; settings: WT ASIC3, QPatch II, read-out: EC50 (95% CI)
Method: RFamide peptide activity on ASIC3 was measured on the QPatch II platform (Sophion, Ballerup, Denmark) using either a CHO or HEK stable cell line and analyzed with Sophion Analyzer software (version 5.2). Prior to recording, the cells were washed twice in PBS (Gibco, Paisley, UK) and treated with Detachin (Genlantis, San Diego) for 3 min, then resuspended in their respective growth media without serum for a concentration of 2 × 10^6 cells/ml. A minimum of 5 mL of cells was added to the QStirrer, which was placed on the deck of the QPatch II and allowed to incubate at room temperature for a minimum of 20 min.
The bath solution contained 135 mM NaCl, 5 mM KCl, 4.8 mM CaCl2, 1 mM MgCl2, 10 mM HEPES, 10 mM MES, and 10 mM glucose adjusted to pH 7.4 with NaOH. The intracellular solution contained 65 mM CsF, 65 mM CsCl, 10 mM HEPES, 5 mM EGTA, 1 mM MgCl2, adjusted to pH 7.4 with CsOH. Cells were held at -60 mV and ASIC currents were evoked with 3 s applications of pH 6.3 buffer. Peptides were preincubated for at least 2 min. The extracellular solution was changed by dispensing 5 µL of buffer through the ~1.7 µL recording chamber, with a solution switch time of 100 ms, that exchanges 99% of the solution. Signals were acquired at 1 kHz and low-pass filtered at 300 Hz. Experiments performed on QPatch II are specifically indicated in the text.

[3] = target: T2, ASIC3 E78Q (Homo sapiens, UniProt Q9UHC3, E78Q); assay: MPC peptide activity on ASIC3 E78Q mutant (I3s/Ipk, peak current, double mutant cycle); assay type: cell-based; settings: read-out: EC50 (95% CI)
T2 construct: human ASIC3 (NM_004769.4); P2A-mCherry reporter (C, cleaved yes); expressed in transfected cells; host or cells: CHO cells (85050302, Sigma), transient transfection
T2 sequence (Q9UHC3 1-531 E78Q): T1 sequence (Q9UHC3 1-531) with E78Q
Source text: We then asked which of the two WRPRFa arginines interacts with the E78/E421 pair. […] To this end, we used a double mutant cycle approach to identify coupling between site 2 or site 4 of WRPRFa with the E78/E421 pair. In this case, the double mutant cycle experiment compared the change in potency caused by single mutations in either WRPRFa or ASIC3 against the change in potency caused by simultaneous mutations in WRPRFa and ASIC3. A coupling coefficient (Ω) can be calculated by dividing the product of the WT/WRPRFa potency and double mutant potency by the product of the two single mutant potencies.
For peptide concentration-response curves, Bottom was set to 0 and Top was constrained to ≤ 1 for peptides that approached plateau phase or where I3s/Ipk reached 1. […] For activation- or desensitization-pH curves, Bottom was set to 0 and Top constrained to 1.

[4] = target: T1, human ASIC3; assay type: cell-based; settings: for Mean (I3s/Ipk), arithmetic / Geometric mean (I3s/Ipk): QPatch II; for Mean (I3s/Ipk), arithmetic: CHO cells
[5] = target: T3, ASIC3 E378Q (Homo sapiens, UniProt Q9UHC3, E378Q); assay: MPC peptide activity on ASIC3 E378Q mutant; assay type: cell-based; settings: read-out: EC50 (95% CI)
T3 construct: human ASIC3 (NM_004769.4); P2A-mCherry reporter (C, cleaved yes); expressed in transfected cells; host or cells: CHO cells (85050302, Sigma), transient transfection
T3 sequence (Q9UHC3 1-531 E378Q): T1 sequence (Q9UHC3 1-531) with E378Q
Method: (§1) We individually mutated the four glutamates to glutamine to remove their charge but maintain the side chain structure (Fig. 4C). We tested each mutant by incubating HEK cells stably expressing ASIC3 or CHO cells transfected with mutant ASIC3 with 30 µM WRPRFa before a pH 6.3 acid stimulus.
(§2) All mutagenesis was performed at Genscript, and sequences were verified by nanopore sequencing by Plasmidsaurus (Eugene, OR). The numbering of ASIC3 amino acids is based on RefSeq NP_004760.1. Plasmids were transfected into CHO cells using Lipofectamine 3000 (Thermo) according to the manufacturer’s protocol. Cells were used for patch-clamp recordings 24–48 h after transfection.
(§3) CHO and HEK cells were tested in the whole-cell configuration on MPC platforms using an Axopatch 200B amplifier (Axon Instruments, San Jose, CA) and a Digidata 1322A or Digidata 1440A digitizer (Axon) using pClamp 9.2 or 10.7 (Molecular Devices, San Jose, CA), respectively. When testing transfected cells, red fluorescence from the cleaved mCherry reporter was used to identify cells expressing ASIC3, ASIC131, or ASIC313. For cells expressing transfected ASIC1a or ASIC2a, the green signal from the cleaved eGFP reporter was used. All electrophysiology data were analyzed with Clampfit 11.1 (Molecular Devices).

[6] = target: T4, ASIC3 E416Q (Homo sapiens, UniProt Q9UHC3, E416Q); assay: MPC peptide activity on ASIC3 E416Q mutant (incl. double mutant cycle); assay type: cell-based; settings: read-out: EC50 (95% CI)
T4 construct: human ASIC3 (NM_004769.4); P2A-mCherry reporter (C, cleaved yes); expressed in transfected cells; host or cells: CHO cells (85050302, Sigma), transient transfection
T4 sequence (Q9UHC3 1-531 E416Q): T1 sequence (Q9UHC3 1-531) with E416Q
Method: as §1, §2, §3

[7] = target: T5, human ASIC3 (acid-sensing ion channel 3) (human) (UniProt Q9UHC3)
T5 sequence: T1 sequence (Q9UHC3 1-531)

[8] = target: human ASIC3 E78Q (human) (UniProt Q9UHC3)
[9] = target: T5, human ASIC3 (acid-sensing ion channel 3) (human); remark: listed apart in the source
[10] = target: T5, human ASIC3 (acid-sensing ion channel 3) (human); remark: listed apart in the source

## N=C(N)NCCC[C@H](NC(=O)[C@@H]1CCCN1C(=O)[C@@H](N)CCCNC(=N)N)C(=O)N[C@@H](Cc1ccccc1)C(N)=O [RPRFa] (H-RPRF-NH2)
[1]
  EC50: ≥ 21.3 µM

## N=C(N)NCCC[C@H](NC(=O)[C@@H]1CCCN1C(=O)[C@H](CCCNC(=N)N)NC(=O)[C@@H](N)Cc1c[nH]c2ccccc12)C(=O)N[C@@H](CC1CCCCC1)C(N)=O [WRPR{Cha}a] (H-WRPR[Cha]-NH2)
[2]
  EC50: 2.33 µM

## CN(C)C(=N)NCCC[C@H](NC(=O)[C@@H]1CCCN1C(=O)[C@H](CCCNC(=N)N)NC(=O)[C@@H](N)Cc1c[nH]c2ccccc12)C(=O)N[C@@H](Cc1ccccc1)C(N)=O [WRP{ADMA}Fa] (H-WRP[Arg(Me2a)]F-NH2)
[3]
  EC50: 4.93 µM
[1]
  EC50: 21.3 µM

## FRPRF-NH2 [FRPRFa]
[2]
  EC50: 7.84 µM

## RPRF-COOH: RPRFa without C-terminal amidation (RPRF-OH)
[4]; 3 µM peptide
  Mean (I3s/Ipk), arithmetic: 0.00354
[4]; 30 µM peptide
  Mean (I3s/Ipk), arithmetic: 0.00339 ± 0.00259 and 0.00339

## RPRF-p-nitroanilide: RPRFa with C-terminal amide replaced by para-nitroanilide (RPRF-pNA)
[4]
  I3s/Ipk, SAR - RPRFa - 30 uM: 0.4296 and 0.3944 and 0.359 and 0.3858 and 0.3642
[4]; 30 µM peptide
  Mean (I3s/Ipk), arithmetic: 0.387
[4]; 30 µM peptide, listed as RPRF-p-na
  Mean (I3s/Ipk), arithmetic: 0.387 ± 0.028

## VRPRFa: site 5 Val (VRPRF-NH2)
[4]; 3 µM peptide
  Geometric mean (I3s/Ipk): 0.0213
[4]; 30 µM peptide, pH 6.3
  Geometric mean (I3s/Ipk): 0.157

## WIPRF-NH2 [WIPRFa]
[3]
  EC50: 1.66 µM
[2]
  EC50: ≥ 24 µM
[5]
  EC50: 20.8 µM
[6]
  EC50: 10.3 µM

## WKPRF-NH2 [WKPRFa]
[2]
  EC50: 9.08 µM

## WRPRF-COOH: WRPRFa without C-terminal amidation (WRPRF-OH)
[4]; 3 µM peptide
  Geometric mean (I3s/Ipk): 0.0303
[4]; 30 µM peptide, pH 6.3
  Geometric mean (I3s/Ipk): 0.249

## WRPR{Cha}a (peptide)
[7]
  EC50 of I3s/Ipk, QPatch II: 2.33 µM

## WRP{ADMA}Fa (peptide)
[8]
  EC50 of I3s/Ipk, escalating peptide before pH 6.3, manual patch clamp: 4.93 µM
[9]
  EC50 of I3s/Ipk, escalating peptide before pH 6.3, manual patch clamp: 21.3 µM

B1: RPRFa (peptide)
peptide: RPRF-NH2
[10]
  EC50 of I3s/Ipk, RPRFa before a pH 6.3 stimulus, manual patch clamp, HEK cells: > 21.3 µM
